This passage reports ratio to parent and Kd results from paper PMC7442819, “Taf14 recognizes a common motif in transcriptional machineries and facilitates their clustering by phase separation” (Nature Communications, 2020).

B1: Sth1^WT-TAP [Saccharomyces cerevisiae] / Taf14-HA [Saccharomyces cerevisiae] (parent complex)
chain 1: MLQEQSELMSTVMNNTPTTVAALAAVAAASETNGKLGSEEQPEITIPKPRSSAQLEQLLYRYRAIQNHPKENKLEIKAIEDTFRNISRDQDIYETKLDTLRKSIDKGFQYDEDLLNKHLVALQLLEKDTDVPDYFLDLPDTKNDNTTAIEVDYSEKKPIKISADFNAKAKSLGLESKFSNATKTALGDPDTEIRISARISNRINELERLPANLGTYSLDDCLEFITKDDLSSRMDTFKIKALVELKSLKLLTKQKSIRQKLINNVASQAHHNIPYLRDSPFTAAAQRSVQIRSKVIVPQTVRLAEELERQQLLEKRKKERNLHLQKINSIIDFIKERQSEQWSRQERCFQFGRLGASLHNQMEKDEQKRIERTAKQRLAALKSNDEEAYLKLLDQTKDTRITQLLRQTNSFLDSLSEAVRAQQNEAKILHGEEVQPITDEEREKTDYYEVAHRIKEKIDKQPSILVGGTLKEYQLRGLEWMVSLYNNHLNGILADEMGLGKTIQSISLITYLYEVKKDIGPFLVIVPLSTITNWTLEFEKWAPSLNTIIYKGTPNQRHSLQHQIRVGNFDVLLTTYEYIIKDKSLLSKHDWAHMIIDEGHRMKNAQSKLSFTISHYYRTRNRLILTGTPLQNNLPELWALLNFVLPKIFNSAKTFEDWFNTPFANTGTQEKLELTEEETLLIIRRLHKVLRPFLLRRLKKEVEKDLPDKVEKVIKCKLSGLQQQLYQQMLKHNALFVGAGTEGATKGGIKGLNNKIMQLRKICNHPFVFDEVEGVVNPSRGNSDLLFRVAGKFELLDRVLPKFKASGHRVLMFFQMTQVMDIMEDFLRMKDLKYMRLDGSTKTEERTEMLNAFNAPDSDYFCFLLSTRAGGLGLNLQTADTVIIFDTDWNPHQDLQAQDRAHRIGQKNEVRILRLITTDSVEEVILERAMQKLDIDGKVIQAGKFDNKSTAEEQEAFLRRLIESETNRDDDDKAELDDDELNDTLARSADEKILFDKIDKERMNQERADAKAQGLRVPPPRLIQLDELPKVFREDIEEHFKKEDSEPLGRIRQKKRVYYDDGLTEEQFLEAVEDDNMSLEDAIKKRREARERRRLRQNGTKENEIETLENTPEASETSLIENNSFTAAVDEETNADKETTASRSKRRSSRKKRTISIVTAEDKENTQEESTSQENGGAKVEEEVKSSSVEIINGSESKKKKPKLTVKIKLNKTTVLENNDGKRAEEKPESKSPAKKTAAKKTKTKSKSLGIFPTVEKLVEEMREQLDEVDSHPRTSIFEKLPSKRDYPDYFKVIEKPMAIDIILKNCKNGTYKTLEEVRQALQTMFENARFYNEEGSWVYVDADKLNEFTDEWFKEHSS
chain 2: MVATVKRTIRIKTQQHILPEVPPVENFPVRQWSIEIVLLDDEGKEIPATIFDKVIYHLHPTFANPNRTFTDPPFRIEEQGWGGFPLDISVFLLEKAGERKIPHDLNFLQESYEVEHVIQIPLNKPLLTEELAKSGSTEETTANTGTIGKRRTTTNTTAEPKAKRAKTGSASTVKGSVDLEKLAFGLTKLNEDDLVGVVQMVTDNKTPEMNVTNNVEEGEFIIDLYSLPEGLLKSLWDYVKKNTE
B2: Ino80_(368–390) [Saccharomyces cerevisiae] / Taf14ET (Taf14_(174–244)) [Saccharomyces cerevisiae] (parent complex)
chain 1: DSKLNIKITLKQYHVKRLKKLIN
chain 2: KGSVDLEKLAFGLTKLNEDDLVGVVQMVTDNKTPEMNVTNNVEEGEFIIDLYSLPEGLLKSLWDYVKKNTE
B3: Sth1EBM (Sth1_(1183–1240)) [Saccharomyces cerevisiae] / Taf14ET (Taf14_(174–244)) [Saccharomyces cerevisiae] (parent complex)
chain 1: EVKSSSVEIINGSESKKKKPKLTVKIKLNKTTVLENNDGKRAEEKPESKSPAKKTAAK
chain 2: B2 chain 2
B4: Snf5_(771–800) [Saccharomyces cerevisiae] / Taf14ET (Taf14_(174–244)) [Saccharomyces cerevisiae] (parent complex)
chain 1: SPPCYIIDHIPGHSLLLSIKLPGKVNTKEE
chain 2: B2 chain 2

One assay covers variants of B1. Put plainly: Co-immunoprecipitation; IP: HA; IB: anti-TAP; parent: 1.
In the case of chain 1 L1204A, chain 1 V1206A, chain 1 I1208A, chain 1 L1210A, the ratio to parent came to 0.38.

The variants in a further assay derive from B2. Put plainly: ITC; parent: 250 nM.
Take chain 1 I6A: the dissociation constant (Kd) (usually the concentration at which binding is half-saturated) was determined as 3.86 µM.

Take chain 1 L10A: the Kd was determined as 3.87 µM.

Variants of B3 are the subject of the next assay. Put plainly: ITC; parent: 50 nM. On the technique in general: In ITC the heat of successive injections is recorded.
For the variant chain 1 I26A, the equilibrium dissociation constant (Kd) worked out at 13.4 µM.

In the case of chain 1 V24A, the Kd came to 2.04 µM.

Take chain 1 L22A: the Kd worked out at 2.06 µM.

As for chain 1 L28A, the Kd was determined as 1.14 µM.

Regarding chain 1 K27E, the dissociation constant (Kd) came out at 3.94 µM.

As for chain 1 K25E, the dissociation constant (Kd) amounted to 7.69 µM.

Another assay covers variants of B3. Nature of the assay: ITC; parent: 50 nM. This is another data set of the same source.
Take chain 2 F47A: the equilibrium dissociation constant (Kd) stood at 0.68 µM.

As for chain 2 F47R, the equilibrium dissociation constant (Kd) is 3.5 µM.

Variants of B4 are the subject of another assay. Put plainly: ITC; parent: 2.48e+03 nM.
Regarding chain 1 L17A, the dissociation constant (Kd) is 41.5 µM.

Consider chain 1 I19A, for which the dissociation constant (Kd) worked out at 189 µM.
